Drawing on the Immune Epitope Database (IEDB), this text covers Kd for seven sequences.

In one assay the target is HLA-A*30:01. Kind of assay: IEDB peptide-MHC binding, purified MHC/competitive/fluorescence; filed as Kd, often an IC50 or EC50 that approximates it; ≥ and ≤ were set here for values at or beyond the usual limits of such assays. The note with it: source organism: Orthomarburgvirus marburgense.
The next assay addresses HLA-B*48:01. Described as above. The note with it: source organism: Orthomarburgvirus marburgense.
Another assay has as its target HLA-A*31:01. The experiment in a line: IEDB peptide-MHC binding, purified MHC/direct/fluorescence; filed as Kd, often an IC50 or EC50 that approximates it; ≥ and ≤ were set here for values at or beyond the usual limits of such assays. The note with it: source organism: Lake Victoria marburgvirus - Popp.
The target in the next assay is HLA-B*40:01. The assay is described as above. The note with it: source organism: Lake Victoria marburgvirus - Popp.
The target of a further assay is HLA-B*08:01. Described as above. As to conditions: source organism: Orthomarburgvirus marburgense.
The target of another assay is HLA-A*01:01. The assay is described as above. The note with it: source organism: Lake Victoria marburgvirus - Popp.
In another assay the target is HLA-B*15:09. Described as above. As to conditions: source organism: Orthomarburgvirus marburgense.
A further assay addresses HLA-A*11:01. The description is as above. As to conditions: source organism: Lake Victoria marburgvirus - Popp.
For assay [1], the target named is HLA-B*07:02. The description is as above. The note with it: source organism: Lake Victoria marburgvirus - Popp.
In assay [2] the target is HLA-B*18:01. The description is as above. As to conditions: source organism: Lake Victoria marburgvirus - Popp.
The target in another assay is HLA-B*27:05. The description is as above. The note with it: source organism: Lake Victoria marburgvirus - Popp.
Assay [3] addresses HLA-A*68:02. Described as above. As to conditions: source organism: Lake Victoria marburgvirus - Popp.
The target in assay [4] is HLA-A*69:01. The description is as above. As to conditions: source organism: Lake Victoria marburgvirus - Popp.
The next assay addresses HLA-B*58:01. The description is as above. As to conditions: source organism: Lake Victoria marburgvirus - Popp.
The target in assay [5] is HLA-B*15:17. The description is as above. The note with it: source organism: Lake Victoria marburgvirus - Popp.
In assay [6] the target is HLA-A*26:01. The description is as above. The note with it: source organism: Orthomarburgvirus marburgense.
For assay [7], the target named is HLA-A*02:01. The description is as above. The note with it: source organism: Lake Victoria marburgvirus - Popp.
For assay [8], the target named is HLA-B*57:01. The description is as above. The note with it: source organism: Lake Victoria marburgvirus - Popp.
Another assay concerns the target HLA-B*35:01. Kind of assay: IEDB peptide-MHC binding, purified MHC/competitive/fluorescence; filed as Kd, often an IC50 or EC50 that approximates it; ≥ and ≤ were set here for values at or beyond the usual limits of such assays.
A further assay concerns the target HLA-B*51:01. The assay is described as above.
The target of assay [9] is HLA-B*07:02. Described as above. The note with it: source organism: Influenza A virus (A/Harbin/1/1988(H1N2)).
For the next assay, the target named is HLA-C*05:01. The experiment in a line: IEDB peptide-MHC binding, purified MHC/direct/fluorescence; filed as Kd, often an IC50 or EC50 that approximates it; ≥ and ≤ were set here for values at or beyond the usual limits of such assays. As to conditions: source organism: Influenza A virus (A/Harbin/1/1988(H1N2)).
A further assay deals with HLA-B*15:01. Kind of assay: IEDB peptide-MHC binding, purified MHC/competitive/fluorescence; filed as Kd, often an IC50 or EC50 that approximates it; ≥ and ≤ were set here for values at or beyond the usual limits of such assays.
A further assay concerns the target HLA-B*46:01. The assay is described as above.
Another assay has as its target HLA-A*03:01. Described as above.
The target in assay [10] is HLA-B*18:01. Described as above.
A further assay deals with HLA-A*29:02. The assay is described as above.
Another assay deals with HLA-B*27:03. The description is as above.
Assay [11] has as its target HLA-A*02:01. The assay is described as above.
Another assay deals with HLA-B*39:01. The assay is described as above.
For assay [12], the target named is HLA-B*57:01. Described as above.
A further assay addresses HLA-A*24:02. Kind of assay: IEDB peptide-MHC binding, purified MHC/direct/fluorescence; filed as Kd, often an IC50 or EC50 that approximates it; ≥ and ≤ were set here for values at or beyond the usual limits of such assays. The note with it: source organism: Giardia lamblia ATCC 50803.
The target of the next assay is HLA-A*02:19. The experiment in a line: IEDB peptide-MHC binding, purified MHC/competitive/fluorescence; filed as Kd, often an IC50 or EC50 that approximates it; ≥ and ≤ were set here for values at or beyond the usual limits of such assays.
Assay [13] concerns the target HLA-B*15:17. The assay is described as above. As to conditions: source organism: Rickettsia felis URRWXCal2.
Assay [14] deals with HLA-A*26:01. The description is as above.
The target in assay [15] is HLA-A*68:02. The assay is described as above. As to conditions: source organism: Cryptosporidium parvum Iowa II.
The target of assay [16] is HLA-A*69:01. The assay is described as above. The note with it: source organism: Cryptosporidium parvum Iowa II.
A further assay addresses HLA-A*02:16. Described as above. As to conditions: source organism: Cryptosporidium parvum Iowa II.
The target of another assay is HLA-A*02:12. The assay is described as above. The note with it: source organism: Cryptosporidium parvum Iowa II.
A further assay has as its target HLA-A*02:03. Described as above. As to conditions: source organism: Cryptosporidium parvum Iowa II.
[17] abbreviates: source organism: Influenza A virus (A/Harbin/1/1988(H1N2)).
[18] abbreviates: source organism: Influenza A virus (A/Aichi/2/1994(H3N2)).
Where [19] appears, read: source organism: Rickettsia felis URRWXCal2.
Where [20] appears, read: source organism: Cryptosporidium parvum Iowa II.

As to GELRKAICL, the Kd is at least 20 µM in the assay with HLA-A*30:01; at least 20 µM with HLA-B*48:01; at least 20 µM with HLA-A*31:01; 0.074 µM in the assay with HLA-B*40:01; at least 20 µM in the assay with HLA-B*08:01; at least 20 µM in the assay with HLA-A*01:01. Moreover, the dissociation constant (Kd) with HLA-B*15:09 is at least 20 µM; with HLA-A*11:01, at least 20 µM; with HLA-B*07:02 [1], at least 20 µM; with HLA-B*18:01 [2], 9 µM; with HLA-B*27:05 it was at least 20 µM; in the assay with HLA-A*68:02 [3], at least 20 µM. In addition, the equilibrium dissociation constant (Kd) in the assay with HLA-A*69:01 [4], in the assay with HLA-B*58:01, in the assay with HLA-B*15:17 [5], in the assay with HLA-A*26:01 [6], with HLA-A*02:01 [7] and with HLA-B*57:01 [8] was at least 20 µM throughout.
Consider LPFQNVHPV, for which the dissociation constant (Kd) in the assay with HLA-B*35:01 (setting [17]) was 0.0004 µM; in the assay with HLA-B*51:01 (setting [17]), 1.49 µM; in the assay with HLA-B*07:02 [9], 0.161 µM; in the assay with HLA-C*05:01, at least 20 µM.
In the case of FQNVNRITY, the Kd in the assay with HLA-B*35:01 (setting [18]) was 0.0394 µM; with HLA-B*15:01 (setting [18]), 0.0751 µM.
As to VVPSYIPLV, the equilibrium dissociation constant (Kd) in the assay with HLA-B*46:01 (source organism: Homo sapiens) was at least 20 µM; in the assay with HLA-A*03:01 (source organism: Homo sapiens), at least 20 µM; with HLA-B*18:01 [10] (source organism: Homo sapiens), at least 20 µM; with HLA-A*29:02 (source organism: Homo sapiens) it was at least 20 µM; with HLA-B*27:03 (source organism: Homo sapiens), at least 20 µM; with HLA-A*02:01 [11] (source organism: Homo sapiens) it was 0.0007 µM. Further, the Kd with HLA-B*39:01 (source organism: Homo sapiens), with HLA-B*57:01 [12] (source organism: Homo sapiens) and with HLA-B*15:01 (source organism: Homo sapiens) was at least 20 µM in each case.
Take RYMRVYNLW: in the assay with HLA-A*24:02, the Kd came to 0.002 µM.
With QYLFSLTYV, the Kd with HLA-B*46:01 (setting [19]) is at least 20 µM; with HLA-B*51:01 (setting [19]), at least 20 µM; with HLA-A*03:01 (setting [19]) it was at least 20 µM; with HLA-A*02:19 (setting [19]) it was at least 20 µM; with HLA-A*29:02 (setting [19]), 8 µM; in the assay with HLA-B*15:17 [13], at least 20 µM. Further, the Kd in the assay with HLA-B*27:03 (setting [19]) was at least 20 µM; with HLA-A*26:01 [14] (setting [19]) it was at least 20 µM; in the assay with HLA-A*02:01 [11] (setting [19]), 1.19 µM; with HLA-B*39:01 (setting [19]), at least 20 µM; with HLA-B*57:01 [12] (setting [19]) it was at least 20 µM; with HLA-B*15:01 (setting [19]), at least 20 µM.
In the case of KSFSAGMFH, the dissociation constant (Kd) with HLA-B*46:01 (setting [20]), with HLA-B*51:01 (setting [20]), with HLA-A*02:19 (setting [20]), in the assay with HLA-B*18:01 [10] (setting [20]), in the assay with HLA-A*68:02 [15] and with HLA-A*29:02 (setting [20]) was at least 20 µM each time. Moreover, the Kd with HLA-A*69:01 [16], in the assay with HLA-A*02:16, with HLA-A*02:12, in the assay with HLA-A*02:03, with HLA-B*27:03 (setting [20]) and with HLA-A*26:01 [14] (setting [20]) was at least 20 µM throughout. For the same sequence, the Kd in the assay with HLA-A*02:01 [11] (setting [20]) was at least 20 µM; with HLA-B*39:01 (setting [20]), at least 20 µM; with HLA-B*57:01 [12] (setting [20]), 0.574 µM.

Broadly, the Kd is the free concentration of one partner at which half of the binding sites on the other are occupied at equilibrium, for simple one-to-one binding. A low value points to higher affinity.
